The series can be described thus: soluble fraction after stress (log2 fold change); higher = more stays soluble; pooled small domains, quantitative proteomics. Conditions: stress: pH 4. In outline:
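Pooled custom libraries of small protein domains were subjected to pH 4 and measured by high-throughput quantitative proteomics. The log2 fold change in soluble amount per domain is reported, higher values meaning more remained soluble. This is used as a measure of aggregation propensity.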

Some results are limits rather than exact numbers.

Take “HMNYSKQRETILKVLRSTRSHPSVNWIYENVKKEIPDVGLATVYRNLKQLEAAGEIMRIQGDFPEERWDGF”: the “soluble fraction (log2)” value was -0.587.

“HMNYTALLNNFSENMKKRRVELSLSQKELASIVGVSVRTIQNYENKKTIPTSAVMESISIALDMGLEKMID”: the “soluble fraction (log2)” value came to 0.04.

For the sequence “HMNYTQAQIDRANAVSLEDFLRTQGETLIKSGREYRWKEHDSLTVRGNKWFRHSQSKGGYPIDFVMEFTA”, the “soluble fraction (log2)” value was -0.0561.

For “HMNYYYKDNQYWYVGFRYDERLVKEIKRFVGAGYNPENKEWYIPFTLPTVAPLQKWLHDNGFVEGMNYYP”, the “soluble fraction (log2)” value was -1.31.

On to “HMPAAFALLTDREREIAALIAQRLTNREIAEKLYLSEGSVKQYVNQLYAKLGIEGDTRTKRRRLAEQAK”, for which the “soluble fraction (log2)” value is 0.12.

Turning to “HMPAAKARTWQEATHAFQRDFLLETLRRARFNAADAADQLGLARPALYTTAKRLGLDLVAERQRWEAEAH”, the “soluble fraction (log2)” value was found to be 0.043.

As for “HMPAAPVFLQKDLLDAGLIGQADSAARREKLGKILGIGYGNGKVMLQRLNSFGIERDAFEQAVQE”, the “soluble fraction (log2)” value is -0.195.

As for “HMPAASDALAGELAQIARLDIAKLLAGDLSEADWSRITSATVQLSERHPDASDELTALVERIDTAYSARAT”, the “soluble fraction (log2)” value is -1.32.

Regarding “HMPAEGWEASGDTWRYRQKDGSYITNAWVQDTDGKWYYFDESSLMVRNQTTSDGYYVGEDGVWTET”, the “soluble fraction (log2)” value was -1.83.

With “HMPAELGVVVRNANLRSGPGTKYAIVGSAPAGTTVRIAGTNKAGDWYHLSSGRWIAAFLVDRN”, the “soluble fraction (log2)” value came to 0.34.

For the sequence “HMPAERLSMRKIYEILRLKYGHGLSNREVALSVSVSRSTVADYLLRAQAAGLSWPLPDGLDETGLEQRLFP”, the “soluble fraction (log2)” value is -0.572.

For “HMPAFGALTLRQRDLVELIAQGLDNSQIAARLGLAEKTVRNHITMIFNKLEMENRSQVIVRARESGFGAVR”, the “soluble fraction (log2)” value was -0.228.

Take “HMPAKIIKKSFVYNPIHRDTEYLAQFLQGEGQVSASGDKLVYYGTVEDISRIKSVLQSVDTPS”: the “soluble fraction (log2)” value was -0.434.

Take “HMPALATKDSVLDGRAEVVSYVRDTSVFYLRVRVPQKQGYRSRRIDGVSTLPEAITKALDTYMDLGT”: the “soluble fraction (log2)” value was -1.02.

Regarding “HMPALELLVESKKPLLIHGEKIAEDINLFDREKYFIDDELIRIVKEFPSLKIILEHVSSKYGAD”, the “soluble fraction (log2)” value is -1.59.

On to “HMPAMYKAERMNQILSILADQGDVDVGTLARQFGVSLVTIRKDLTYLESSGQLVRTHGGAIAVA”, for which the “soluble fraction (log2)” value is -0.26.

As for “HMPASVEYIRLAAEQMTGQQVTIIEQPGNYAFILRIHLNDIYSLDLAALRARIDELKPAHLTYTVEQYD”, the “soluble fraction (log2)” value is -1.85.

As to “HMPATTMMVVVDRDLPYGHVLTDRDVRLETRRATSPGASVAFTSIDPVLGQSLTRPLGAGTPVGRADLR”, the “soluble fraction (log2)” value was -0.151.

As to “HMPAVVEFDVKPRGEVLVDGIWYGRIPELREVELRPGRHHLRVQNAGHPSLDLVVTLEPGERMTVTHTFA”, the “soluble fraction (log2)” value is -0.33.

“HMPDAENFRYRVPYTTEQNRLQYYEGDIRAENADKARDQVMQDAQKYFAQNTAFTPNYIDTDIISLD”: the “soluble fraction (log2)” value was -0.615.

Take “HMPDFAENAVYGKQREDSLYAHAYKHFQLGDTTTVRAAEHLSAEIYPLGQHRPKFMFLNAVTR”: the “soluble fraction (log2)” value was 0.22.

For the sequence “HMPDITAAVARTLQALRADRGWSLDQLAARSGVSKGVLVALEQGRSNPNLATLARIGDAFGVPVTLLVDL”, the “soluble fraction (log2)” value is -0.196.

Consider “HMPDPHSEARNIVLNQLNFMPRSRKELETALAKRNIEADVAKIVLDRFEEIGMVDDAAYAEL”, for which the “soluble fraction (log2)” value is -1.2.

As to “HMPDPLYLINGKIVNKSDFNNIDPRSIQSIEVLKANKALEAFGNDGKNGVIKITLKSSNDQM”, the “soluble fraction (log2)” value came out at 0.22.

With “HMPEEGPSEDGNSFTAKFKLGSDVQGAMEQADAAAKAGLQDAGKGTGQITSRAQVGGYIYSTATA”, the “soluble fraction (log2)” value was found to be 0.22.

For the sequence “HMPEIFYRKIHRTDHDQIALDAEMIRLLIAIDEKKSLSQIAAEVQMEPMALKKNLGKLIQLGLVEPIK”, the “soluble fraction (log2)” value is -0.179.

For “HMPELSNNLDRDKVALKNFNESLKDGLTPAEAYANHLTNVSKAAQEAARQSNGLPVDIDKYHNSQLAASMA”, the “soluble fraction (log2)” value is not below 0.43.

Regarding “HMPEMAIRTLRLRNQRGAAVAAEWSRITASLLELRQVEFVNPVDQLIVLKGPEPWAGVAEELVRQLDV”, the “soluble fraction (log2)” value was -1.02.

For the sequence “HMPEQLLNTRIPLEFAGRRFDASLAELFPDYSRSRLAAWIKDGAARLDGETVAPRHTVRGGEQVEILVRM”, the “soluble fraction (log2)” value is -0.13.

As to “HMPERLTYVHPDGAEPMRADKALAAFLSGRISRSRLLGSFSAGKVMAGGKPVEKKLLLRAGDALEVELPEP”, the “soluble fraction (log2)” value turned out to be 0.0894.

As for “HMPERMLEPLLNGNEIMKVTQLQPGPKVGLIRDALLQAQISGDVTDTESAKAFVQDYAKRNI”, the “soluble fraction (log2)” value was determined as 0.386.

For “HMPESETIMVDVKGAVQSEGVYELPSTARVNDAIEAAGGFSDQADKKSVNLAQKLSDEAVVYVASQGENV”, the “soluble fraction (log2)” value was -0.28.

On to “HMPEVTMSYSARNQVVSFSKATQYEIVDEFGTVVLRGVGNQATLRYLSRGDYFVNFGAGTEVLKK”, for which the “soluble fraction (log2)” value came to 0.089.

Turning to “HMPEVYSFEVNEGAAGKRLDIFLSGEIEGLTRSFIQKLISEGMATVNQEPPRASYRVKTRDLVELQIPDPE”, the “soluble fraction (log2)” value was -0.309.

As to “HMPFDWSAFDWKGWADEALAIIKTANQDQMNKWTEDNEKIIVQAETAAPDIYKTVGDEYDKKMESFN”, the “soluble fraction (log2)” value is 0.0448.

For “HMPFESEMKHWIHLFAHELNLKVSDKYTQKIIEIFGNNFSEIFNEMSKSSLVSSNEKDLLNALEKSGNIH”, the “soluble fraction (log2)” value is -0.862.

Take “HMPFGIYGGKVSSLDDLKDKAAVLVPNDVSNEARALLLLEAQGLIKLKEGVGLEATRNDIVEN”: the “soluble fraction (log2)” value is -0.0596.

Turning to “HMPFTLDGVNEGSRNDQAARMSGYLISKNLNMDFIKFFMQSWNRQNSPPLSQREINSVVDNVKRTHDRKNK”, the “soluble fraction (log2)” value is -0.697.

On to “HMPGKVSDAGATAKDNRLFLEAVFWRVRTGSPWRDLPPAFGHWNSQFRRFRRWAKAGVFESLFNA”, for which the “soluble fraction (log2)” value turned out to be 0.179.

On to “HMPGRKKLAIIYKNDYIGAFNLADSYRDSYEVSMYAFPKKVGKLLNRLELQGFNAYVIYDKDNEENNFNTI”, for which the “soluble fraction (log2)” value amounted to 0.00545.

As for “HMPGSGELSRRLELAIRDRTAVRVTAAAAGQERSFTLLPVAITSGRLRATDEQAGVQRTLPLSAIVAVEA”, the “soluble fraction (log2)” value is -0.135.

On to “HMPGTEAQDGEVLLDALRRIHPDSSTGTLRRMLTQGRVQVDGTTVHAAKAELTSGQHVEVVAR”, for which the “soluble fraction (log2)” value was -0.0746.

“HMPIDIEPVLQWIRDNSIDGIGPARSMYHSAAAAAGLPSYSSLQLRKWTWPLLLDAAGVQRR”: the “soluble fraction (log2)” value is -0.265.

With “HMPIRMLQVQKTNTGYLNVRDTPSVSGALIGKVFPGDMLSSTEERDGWFLVAVPQGGTGWVSGDYVKTTS”, the “soluble fraction (log2)” value turned out to be 0.0778.

On to “HMPKAPHETLSRREMEVLLLLSEGVTLTRIGDTIHVSVKTVSTYRARILQKLDLQSNAELTRYVLQHKL”, for which the “soluble fraction (log2)” value was not below 0.43.

Regarding “HMPKHDWDAFAGAIARRVHDHGMPVSQGELVRDMMDWFAGRKDFPPPDERTVRRKVSAIWRELNG”, the “soluble fraction (log2)” value is -0.292.

In the case of “HMPKIPRLTLTETAGIMGVSQRALALAIQQGMYSWAQALPGRNKKRPIYFINAITFAKAQGIDLEEYK”, the “soluble fraction (log2)” value is -0.529.

For “HMPKKLIWERTTSKLQLYITQDRYELKTPLMTIPFTSKSKMMVYLQQRYHLDMQEYRQIYDAG”, the “soluble fraction (log2)” value is 0.0815.

For the sequence “HMPKMDGLTVMEQVNQDHFVNKRPYFIVITAVGQEKITEDAFNKGANYYVMKPFNNNMLLERIKSVRK”, the “soluble fraction (log2)” value stood at 0.0916.

In the case of “HMPKYLNIYHELAQRIQEGALPAETKLPSETELMQEFEASRGTVRKAIDALQEKGFVRKHQGKGVFVLSQ”, the “soluble fraction (log2)” value was determined as 0.152.

“HMPLDYNELRSISPKAARQAILQILAANKGNVSATAKLLGVSRKTVYKAMHKKASGNLDDTSRAPK”: the “soluble fraction (log2)” value is 0.13.

On to “HMPLITAIELDSISARSFQFNTQSGSTYFIEGSTDLKSWDVIAEVKATDSTTTYEDHRKIYHEAYFYRVRL”, for which the “soluble fraction (log2)” value is -1.55.

Take “HMPLITDIKIQVKNTEKVSLFVDGKYSFSLTISQLAEHKILKTNQEISAKQVAEFKKLSNLTNLYIRIVG”: the “soluble fraction (log2)” value was -0.296.

“HMPLITLSAEIQSEQIGQRLDQTLAELFPEYSRSRLKTWIEADLVKLNNQIVNIPREKVLGGEHVEITVDI”: the “soluble fraction (log2)” value was -0.792.

“HMPLNRFLNLPHEDKERVLLIAKKQFSTHGYDAMSLNLLLKELDISKGQFYYWFEDKADLFFTVL”: the “soluble fraction (log2)” value stood at 0.0543.

On to “HMPLRPNQRQFIHLMVYQGLDRNEAYAQANNKVLTEENYESIRTAAAKTFYTPHVNNYYHALMEEIRDRE”, for which the “soluble fraction (log2)” value is -0.404.

For the sequence “HMPLSVRQRMSDILSNLKTSDFTNFADLFDPKEGRTGITVTFIAILELLREFLIEVVQSDHYQPLHVRAAS”, the “soluble fraction (log2)” value is 0.115.

As for “HMPLTAASLQTYLRGVDYPASKQDLIAHARKSDAPEDAITVLEQYSEQTYRSAADVSAEFGS”, the “soluble fraction (log2)” value is -0.156.

“HMPLTEMAVRKHLSAELAQKGYTIDPRALEILLQRTNTNLTAIANELPKLLLVAEDKQITVNEVSAM”: the “soluble fraction (log2)” value is -0.1.

Regarding “HMPLTKKLETLFSLFPKYEKELKKKGVTRIHVWANYKEEYPDGIGRSQFIHYYSFWKKQVSP”, the “soluble fraction (log2)” value is -0.045.

As for “HMPLVIIRGIEGVFSSEEKAEAIRKVTDALVSVKGENVRGFAWVVFEEVKSGDWGIGGESITAEKVIMSL”, the “soluble fraction (log2)” value is -0.39.

“HMPMDDETWDALSLFAYKRYARENGWPLMIGAEALRDTFASYFPLDSSTWQDRSSHYLTYQDGIYTRT”: the “soluble fraction (log2)” value was -0.753.

Take “HMPMDYFELFNIPRNANRETIKKILDQEYEKYRARVVSPVLEIRHEAELMLVEISKAKQVLLG”: the “soluble fraction (log2)” value was -0.223.

For “HMPMHPEDLKKLVSIEMPFGKHKGRIIADLPGNYLNWFAREGFPPGEIGRLLQLMQEIDHNGLSDLLKPLR”, the “soluble fraction (log2)” value was -0.645.

“HMPMNISDIIKQAREELGMTQEDLAERLEVSRQAVSKWELGASVPSPENLRLLEELLGVELPAP”: the “soluble fraction (log2)” value was -0.635.

Regarding “HMPNFDPSYILDFGDVIQLQLVGQKNQILEIPILRDGSVNLPDIGKIFLSGMSLEEATKIIKDTYSA”, the “soluble fraction (log2)” value was -1.28.

On to “HMPNGEAYQRFTYENDILEGRFEEWDSLGTDIVKGDYTAGVRHKKWLYYDSEGRRDKFVFLDMDSI”, for which the “soluble fraction (log2)” value is -0.345.

Take “HMPNNNDIVLDRVSFGYHEKEVLHGIDMTIREGTVNALVGPSGSGKSTIAKLIAGLWDVDGGSISF”: the “soluble fraction (log2)” value was 0.137.

“HMPNPSAGRVHIDALLPFDRVEVTDMQGSLLLDHSFSPRRAVDLDLNARGTLLYTLWSKGHLLGKGRVVR”: the “soluble fraction (log2)” value amounted to 0.213.

The record behind these values is the domain aggregation screens of Martell et al. (2025).
